Our source for the Kd values is patent EP4722253A1 (dated 2026).

For test [1], the target named is T1, C1q, complement component 1q (UniProt P02745 23-245; P02746 28-253; P02747 29-245).
T1 construct: also called Clq
Briefly: BLI (Octet HTX), antibody on FAB2G biosensor, C1q in solution. In general terms: BLI is a label-free optical method that tracks binding on a fibre tip over time.

Another test addresses T2, FcγRIIIa (UniProt P08637 17-208).
T2 construct: also called FcyRIIIa
Briefly: BLI (Octet HTX), antibody on FAB2G biosensor, FcγRIIIa in solution.

For another test, the target named is T3, FcγRIIa (UniProt P12318 34-217).
T3 sequence (looked up): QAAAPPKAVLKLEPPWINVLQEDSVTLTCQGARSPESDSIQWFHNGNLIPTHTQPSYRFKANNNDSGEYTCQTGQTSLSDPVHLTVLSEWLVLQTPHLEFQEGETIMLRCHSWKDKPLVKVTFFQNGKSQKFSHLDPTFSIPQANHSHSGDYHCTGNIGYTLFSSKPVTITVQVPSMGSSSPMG
Briefly: BLI (Octet HTX), antibody on FAB2G biosensor, FcγRIIa in solution.

The target in a further test is T4, FcRn (UniProt P55899 24-297).
T4 construct: also called neonatal Fc receptor
Description: BLI (Octet HTX), antibody on FAB2G biosensor, FcRn in solution, pH 6.0.

T2 sequence (P08637 17-208 limits assumed): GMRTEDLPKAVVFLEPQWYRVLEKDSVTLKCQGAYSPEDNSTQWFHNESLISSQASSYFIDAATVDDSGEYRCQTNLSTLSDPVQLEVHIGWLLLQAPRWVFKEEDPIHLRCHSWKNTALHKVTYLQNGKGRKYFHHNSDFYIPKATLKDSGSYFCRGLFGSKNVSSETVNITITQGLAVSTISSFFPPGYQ
T1 sequence (P02745 23-245 limits assumed, chain 1 of 3): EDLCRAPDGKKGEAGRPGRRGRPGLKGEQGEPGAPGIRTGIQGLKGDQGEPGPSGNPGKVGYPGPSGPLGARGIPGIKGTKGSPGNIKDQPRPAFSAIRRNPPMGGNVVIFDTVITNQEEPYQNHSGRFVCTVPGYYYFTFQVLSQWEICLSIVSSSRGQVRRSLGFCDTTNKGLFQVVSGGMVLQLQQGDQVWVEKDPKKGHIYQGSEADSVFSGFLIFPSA
T1 sequence (P02746 28-253 limits assumed, chain 2 of 3): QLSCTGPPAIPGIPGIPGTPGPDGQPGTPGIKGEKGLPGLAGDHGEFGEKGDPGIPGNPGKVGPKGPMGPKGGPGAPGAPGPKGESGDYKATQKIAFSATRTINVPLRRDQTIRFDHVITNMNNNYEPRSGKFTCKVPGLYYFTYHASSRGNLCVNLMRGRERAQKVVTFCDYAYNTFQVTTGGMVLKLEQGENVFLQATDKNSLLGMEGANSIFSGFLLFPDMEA
T1 sequence (P02747 29-245 limits assumed, chain 3 of 3): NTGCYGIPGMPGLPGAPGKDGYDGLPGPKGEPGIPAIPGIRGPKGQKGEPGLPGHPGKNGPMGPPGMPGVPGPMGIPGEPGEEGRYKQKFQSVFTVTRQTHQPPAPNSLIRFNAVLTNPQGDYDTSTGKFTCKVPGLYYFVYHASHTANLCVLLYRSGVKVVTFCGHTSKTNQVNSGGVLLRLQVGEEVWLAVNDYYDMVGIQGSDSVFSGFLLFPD
T4 sequence (P55899 24-297 limits assumed, form in doubt): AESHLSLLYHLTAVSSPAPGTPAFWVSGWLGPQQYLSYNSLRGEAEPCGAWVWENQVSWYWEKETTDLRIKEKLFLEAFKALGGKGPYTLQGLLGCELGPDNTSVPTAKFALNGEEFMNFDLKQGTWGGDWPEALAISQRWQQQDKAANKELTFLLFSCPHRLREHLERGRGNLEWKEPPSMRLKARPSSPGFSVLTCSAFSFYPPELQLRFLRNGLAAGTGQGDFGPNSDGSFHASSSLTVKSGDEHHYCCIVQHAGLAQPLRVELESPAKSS

B1: Q-SBL-101 (bispecific antibody, human IgG1, kappa)
heavy 1: not shown
heavy 2: EVQLVESGGGLVQPGGSLRLSCAASGYTFTNYGMNWVRQAPGKGLEWVGWINTYTGEPTYAADFKRRFTFSLDTSKSTAYLQMNSLRAEDTAVYYCAKYPHYYGSSHWYFDVWGQGTLVTVSSASTKGPSVFPLAPSSKSTSGGTAALGCLVKDYFPEPVTVSWNSGALTSGVHTFPAVLQSSGLYSLSSVVTVPSSSLGTQTYICNVNHKPSNTKVDKKVEPKSCDKTHTCPPCPAPELLGGPSVFLFPPKPKDTLMISRTPEVTCVVVDVSHEDPEVKFNWYVDGVEVHNAKTKPREEQYNSTYRVVSVLTVLHQDWLNGKEYKCKVSNKALPAPIEKTISKAKGQPREPQVCTLPPSRREMTKNQVSLWCLVKGFYPSDIAVEWESNGQPENNYKTTPPVLDSDGSFFLYSKLTVDKSRWQQGNVFSCSVMHEALHNHYTQKSLSLSPGK
light 1: not shown
light 2: not shown
notes: copies: 1 + 1 + 1 + 1
As to B1, the Kd (usually the equilibrium constant for the complex coming apart) in test [1] was 36 nM; with FcγRIIIa it was 500 nM; with FcγRIIa it was 2460 nM; with FcRn, 730 nM.

B2: Q-SBL-102 (bispecific antibody, human IgG1, kappa)
heavy 1: not shown
heavy 2: EVQLVESGGGLVQPGGSLRLSCAASGYTFTNYGMNWVRQAPGKGLEWVGWINTYTGEPTYAADFKRRFTFSLDTSKSTAYLQMNSLRAEDTAVYYCAKYPHYYGSSHWYFDVWGQGTLVTVSSASTKGPSVFPLAPSSKSTSGGTAALGCLVKDYFPEPVTVSWNSGALTSGVHTFPAVLQSSGLYSLSSVVTVPSSSLGTQTYICNVNHKPSNTKVDKKVEPKSCDKTHTCPPCPAPELLGGPSVFLFPPKPKDTLMISRTPEVTCVVVDVSHEDPEVKFNWYVDGVEVHNAKTKPREEQYNSTYRVVSVLTVLHQDWLNGKEYKCKVSNKALPAPIEKTISKAKGQPREPQVCTLPPSREEMTKNQVSLWCLVKGFYPSDIAVEWESNGQPENNYKTTPPVLHSDGSFFLYSKLTVDKSRWQQGNVFSCSVMHEALHNHYTQKSLSLSPGK
light 1: not shown
light 2: not shown
notes: copies: 1 + 1 + 1 + 1
Take B2: the Kd in test [1] turned out to be 40 nM; with FcγRIIIa, 420 nM; with FcγRIIa it was 1700 nM; with FcRn, 710 nM.

B3: Q-SBL-114 (bispecific antibody, human IgG1, kappa)
heavy 1: not shown
heavy 2: EVQLVESGGGLVQPGGSLRLSCAASGYTFTNYGMNWVRQAPGKGLEWVGWINTYTGEPTYAADFKRRFTFSLDTSKSTAYLQMNSLRAEDTAVYYCAKYPHYYGSSHWYFDVWGQGTLVTVSSASTKGPSVFPLAPSSKSTSGGTAALGCLVKDYFPEPVTVSWNSGALTSGVHTFPAVLQSSGLYSLSSVVTVPSSSLGTQTYICNVNHKPSNTKVDKKVEPKSCDKTHTCPPCPAPELLGGPSVFLFPPKPKDTLMISRTPEVTCVVVDVSHEDPEVKFNWYVDGVEVHNAKTKPREEQYNSTYRVVSVLTVLHQDWLNGKEYKCKVSNKALPAPIEKTISKAKGQPREPQVCTLPPSREEMTKNQVSLWCLVKGFYPSDIAVEWESNGQPENNYKTTPPVLHSDGSFFLYSKLTVDKSRWQQGNVFSCSVMHEALHNHYTQKSLSLSPGK
light 1: not shown
light 2: not shown
notes: copies: 1 + 1 + 1 + 1
Turning to B3, the results for the Kd (in test [1]; with FcγRIIIa; with FcγRIIa) were 18 nM, 230 nM and 1860 nM, respectively.

B4: Q-SBL-117 (bispecific antibody, human IgG1, kappa)
heavy 1: not shown
heavy 2: EVQLVESGGGLVQPGGSLRLSCAASGYTFTNYGMNWVRQAPGKGLEWVGWINTYTGEPTYAADFKRRFTFSLDTSKSTAYLQMNSLRAEDTAVYYCAKYPHYYGSSHWYFDVWGQGTLVTVSSASTKGPSVFPLAPSSKSTSGGTAALGCLVKDYFPEPVTVSWNSGALTSGVHTFPAVLQSSGLYSLSSVVTVPSSSLGTQTYICNVNHKPSNTKVDKKVEPKSCDKTHTCPPCPAPELLGGPSVFLFPPKPKDTLMISRTPEVTCVVVDVSHEDPEVKFNWYVDGVEVHNAKTKPREEQYNSTYRVVSVLTVLHQDWLNGKEYKCKVSNKALPAPIEKTISKAKGQPREPQVCTLPPSRKEMTKNQVSLWCLVKGFYPSDIAVEWESNGQPENNYKTTPPVLDSDGSFFLYSKLTVDKSRWQQGNVFSCSVMHEALHNHYTQKSLSLSPGK
light 1: not shown
light 2: not shown
notes: copies: 1 + 1 + 1 + 1
For B4, the results for the Kd (in test [1]; with FcγRIIIa; in the test with FcγRIIa) were 40 nM, 360 nM and 2550 nM, respectively.

B5: Q-SBL-104 (bispecific antibody, human IgG1, kappa)
heavy 1: not shown
heavy 2: EVQLVESGGGLVQPGGSLRLSCAASGYTFTNYGMNWVRQAPGKGLEWVGWINTYTGEPTYAADFKRRFTFSLDTSKSTAYLQMNSLRAEDTAVYYCAKYPHYYGSSHWYFDVWGQGTLVTVSSASTKGPSVFPLAPSSKSTSGGTAALGCLVKDYFPEPVTVSWNSGALTSGVHTFPAVLQSSGLYSLSSVVTVPSSSLGTQTYICNVNHKPSNTKVDKKVEPKSCDKTHTCPPCPAPELLGGPSVFLFPPKPKDTLMISRTPEVTCVVVDVSHEDPEVKFNWYVDGVEVHNAKTKPREEQYNSTYRVVSVLTVLHQDWLNGKEYKCKVSNKALPAPIEKTISKAKGQPREPQVCTLPPSRREMTKNQVSLWCLVKGFYPSDIAVEWESNGQPENNYKTTPPVLHSDGSFFLYSKLTVDKSRWQQGNVFSCSVMHEALHNHYTQKSLSLSPGK
light 1: not shown
light 2: not shown
notes: copies: 1 + 1 + 1 + 1
As to B5, the Kd with FcγRIIa turned out to be 1870 nM; in the test with FcRn, 680 nM.

B6: Q-SBL-103 (bispecific antibody, human IgG1, kappa)
heavy 1: not shown
heavy 2: EVQLVESGGGLVQPGGSLRLSCAASGYTFTNYGMNWVRQAPGKGLEWVGWINTYTGEPTYAADFKRRFTFSLDTSKSTAYLQMNSLRAEDTAVYYCAKYPHYYGSSHWYFDVWGQGTLVTVSSASTKGPSVFPLAPSSKSTSGGTAALGCLVKDYFPEPVTVSWNSGALTSGVHTFPAVLQSSGLYSLSSVVTVPSSSLGTQTYICNVNHKPSNTKVDKKVEPKSCDKTHTCPPCPAPELLGGPSVFLFPPKPKDTLMISRTPEVTCVVVDVSHEDPEVKFNWYVDGVEVHNAKTKPREEQYNSTYRVVSVLTVLHQDWLNGKEYKCKVSNKALPAPIEKTISKAKGQPREPQVCTLPPSRERMTKNQVSLWCLVKGFYPSDIAVEWESNGQPENNYKTTPPVLDSDGSFFLYSKLTVDKSRWQQGNVFSCSVMHEALHNHYTQKSLSLSPGK
light 1: not shown
light 2: not shown
notes: copies: 1 + 1 + 1 + 1
In the case of B6, the Kd in test [1] was 40 nM; with FcγRIIIa, 220 nM; with FcγRIIa, 1130 nM.

B7: Q-SBL-136 (bispecific antibody, human IgG1, kappa)
heavy 1: not shown
heavy 2: EVQLVESGGGLVQPGGSLRLSCAASGYTFTNYGMNWVRQAPGKGLEWVGWINTYTGEPTYAADFKRRFTFSLDTSKSTAYLQMNSLRAEDTAVYYCAKYPHYYGSSHWYFDVWGQGTLVTVSSASTKGPSVFPLAPSSKSTSGGTAALGCLVKDYFPEPVTVSWNSGALTSGVHTFPAVLQSSGLYSLSSVVTVPSSSLGTQTYICNVNHKPSNTKVDKKVEPKSCDKTHTCPPCPAPELLGGPSVFLFPPKPKDTLMISRTPEVTCVVVDVSHEDPEVKFNWYVDGVEVHNAKTKPREEQYNSTYRVVSVLTVLHQDWLNGKEYKCKVSNKALPAPIEKTISKAKGQPREPQVCTLPPSREEMTKNQVSLWCLVKGFYPSDIAVEWESNGQPENNYKTTPPVLDSDGSFFLYSTLTVDKSRWQQGNVFSCSVMHEALHNHYTQKSLSLSPGK
light 1: not shown
light 2: not shown
notes: copies: 1 + 1 + 1 + 1
B7: the dissociation constant Kd was 230 nM in the test with FcγRIIIa, 1970 nM with FcγRIIa and 620 nM with FcRn.

B8: Q-SBL-106 (bispecific antibody, human IgG1, kappa)
heavy 1: not shown
heavy 2: EVQLVESGGGLVQPGGSLRLSCAASGYTFTNYGMNWVRQAPGKGLEWVGWINTYTGEPTYAADFKRRFTFSLDTSKSTAYLQMNSLRAEDTAVYYCAKYPHYYGSSHWYFDVWGQGTLVTVSSASTKGPSVFPLAPSSKSTSGGTAALGCLVKDYFPEPVTVSWNSGALTSGVHTFPAVLQSSGLYSLSSVVTVPSSSLGTQTYICNVNHKPSNTKVDKKVEPKSCDKTHTCPPCPAPELLGGPSVFLFPPKPKDTLMISRTPEVTCVVVDVSHEDPEVKFNWYVDGVEVHNAKTKPREEQYNSTYRVVSVLTVLHQDWLNGKEYKCKVSNKALPAPIEKTISKAKGQPREPQVCTLPPSRERMTKNQVSLWCLVKGFYPSDIAVEWESNGQPENNYKTTPPVLHSDGSFFLYSKLTVDKSRWQQGNVFSCSVMHEALHNHYTQKSLSLSPGK
light 1: not shown
light 2: not shown
notes: copies: 1 + 1 + 1 + 1
In the test with FcRn, B8 registered a Kd of 680 nM. This counts as sub-micromolar.

B9: Q-SBL-135 (bispecific antibody, human IgG1, kappa)
heavy 1: not shown
heavy 2: EVQLVESGGGLVQPGGSLRLSCAASGYTFTNYGMNWVRQAPGKGLEWVGWINTYTGEPTYAADFKRRFTFSLDTSKSTAYLQMNSLRAEDTAVYYCAKYPHYYGSSHWYFDVWGQGTLVTVSSASTKGPSVFPLAPSSKSTSGGTAALGCLVKDYFPEPVTVSWNSGALTSGVHTFPAVLQSSGLYSLSSVVTVPSSSLGTQTYICNVNHKPSNTKVDKKVEPKSCDKTHTCPPCPAPELLGGPSVFLFPPKPKDTLMISRTPEVTCVVVDVSHEDPEVKFNWYVDGVEVHNAKTKPREEQYNSTYRVVSVLTVLHQDWLNGKEYKCKVSNKALPAPIEKTISKAKGQPREPQVCTLPPSREEMTKNQVSLWCLVKGFYPSDIAVEWESNGQPENNYKTTPPVLDSDGSFFLYSVLTVDKSRWQQGNVFSCSVMHEALHNHYTQKSLSLSPGK
light 1: not shown
light 2: not shown
notes: copies: 1 + 1 + 1 + 1
For B9, the Kd in the test with FcγRIIIa was 300 nM; with FcγRIIa it was 1380 nM; with FcRn, 650 nM.

B10: Q-SBL-105 (bispecific antibody, human IgG1, kappa)
heavy 1: not shown
heavy 2: EVQLVESGGGLVQPGGSLRLSCAASGYTFTNYGMNWVRQAPGKGLEWVGWINTYTGEPTYAADFKRRFTFSLDTSKSTAYLQMNSLRAEDTAVYYCAKYPHYYGSSHWYFDVWGQGTLVTVSSASTKGPSVFPLAPSSKSTSGGTAALGCLVKDYFPEPVTVSWNSGALTSGVHTFPAVLQSSGLYSLSSVVTVPSSSLGTQTYICNVNHKPSNTKVDKKVEPKSCDKTHTCPPCPAPELLGGPSVFLFPPKPKDTLMISRTPEVTCVVVDVSHEDPEVKFNWYVDGVEVHNAKTKPREEQYNSTYRVVSVLTVLHQDWLNGKEYKCKVSNKALPAPIEKTISKAKGQPREPQVCTLPPSRRRMTKNQVSLWCLVKGFYPSDIAVEWESNGQPENNYKTTPPVLDSDGSFFLYSKLTVDKSRWQQGNVFSCSVMHEALHNHYTQKSLSLSPGK
light 1: not shown
light 2: not shown
notes: copies: 1 + 1 + 1 + 1
For B10, the Kd was found to be 430 nM in the test with FcγRIIIa, 1910 nM in the test with FcγRIIa and 710 nM in the test with FcRn.
